Patent US20160039904A1 (UNITED STATES OF AMERICA AS REPRESENTED BY THE SECRETARY …, published 2016)

Columns and labels:
HIV-1 gp140Con-s = HIV-1 gp140Con-s (HIV-1)
HIV-1 gp140MS = HIV-1 gp140MS (HIV-1)
HIV-1 gp140CH12.0544.2 = HIV-1 gp140CH12.0544.2 (HIV-1)

B1: mD1.22 (receptor)
chain: not shown
B1 was tested. Which Kd (HIV-1 gp140Con-s) did it give?
Its Kd is 4400 pM.

And the Kd (HIV-1 gp140MS)?
The Kd was 190 pM.

What about the Kd (HIV-1 gp140CH12.0544.2) of the same binder?
Its Kd is 170 pM.
